± gives the uncertainty stated by the source.
Experiment: protein stability index of a GFP-peptide fusion (yeast GPS) (PSI 1-4); higher = more stable; sorted into four equal gates, so the index is relative within each strain
Conditions: ubr1∆
Outline: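 Tiled 17-residue yeast protein peptides were fused downstream of GFP in a plasmid that also expresses Cherry, and the pooled library was carried in yeast. Mid-log cultures in leucine-free medium were sorted into four equal gates by GFP/Cherry fluorescence ratio, and plasmids from each gate were PCR-amplified and Illumina-sequenced, with reads assigned to strains by barcodes. The protein stability index for each peptide was each gate's read frequency times its gate number, summed.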

| Sequence | protein stability index |
| --- | --- |
| ARYSIIREINYTMSNHG [RPO31] | 1.44 ± 0.23 |
| ASDLVLIVIDVVEGVTF [SNU114] | 2.38 ± 0.047 |
| ASFQIVEEDHTLGNALR [RPC19] | 3.35 ± 0.26 |
| ASGCNVTPIIDGIVVKN [ARP7] | 2.9 ± 0.055 |
| ASISLAIGYPTLPSVGH [RPP0] | 2.62 ± 0.049 |
| ASKYNCDKSVCRKCYAR [RPL40A] | 2.73 ± 0.053 |
| ASQPEPTTNEPAKPALS [YJL041W/NSP1] | 3.12 ± 0.06 |
| ATAALEIILKLCRNPLT [YJL039C/NUP192] | 2.38 ± 0.059 |
| ATANATANATAELNLPT [SNF11] | 3.282 ± 0.02 |
| ATGFGAHMANPLLRKVV [PRE4] | 3.34 ± 0.18 |
| ATLNYIDKNHGFERLTV [SRB7] | 3.49 ± 0.13 |
| ATLSKLKKKYQIILDRF [SIR3] | 1.71 ± 0.061 |
| ATMENIQKGKFTLLDFK [SRP54] | 2.96 ± 0.046 |
| ATSTKVSVEGVNVEKFN [RPL6A] | 3.16 ± 0.1 |
| ATVEECVKLTVRSLLEV [PRE6] | 1.47 ± 0.055 |
| ATVLSRKILKKTFKNPK [RPN5] | 2.87 ± 0.037 |
| AVAEAYNNRSLLDFNTA [RPN6] | 3.25 ± 0.11 |
| AVGAHSDLLKVLKSKKL [RPL4A] | 2.82 ± 0.062 |
| AVHNGDRKHVAALRTVK [RPL9B] | 2.71 ± 0.049 |
| AVHSIIALSRRFLLNGR [YDL116W/NUP84] | 1.99 ± 0.085 |
| AVKYGLNHVVALIENKK [RPL8A] | 2.45 ± 0.067 |
| AVLNVSPVYDVDPRIIN [NUT1] | 2.17 ± 0.06 |
| AVNLLNCPHSDSTQLLE [SSN2] | 2.9 ± 0.072 |
| CCYFIEWKSNHKKKRSN [SRB8] | 1.92 ± 0.048 |
| CDLDFPLRENTNVLDVK [YDL116W/NUP84] | 2.56 ± 0.037 |
| CDQTKSVPLMINAKNIA [RRP43] | 1.61 ± 0.068 |

| Sequence | protein stability index |
| --- | --- |
| CFVHRYKDVSDLIRSES [IRR1] | 2.89 ± 0.06 |
| CIVDFTNPKLKSEFDDL [YMR129W/POM152] | 1.69 ± 0.052 |
| CKKNTKKCLKLAYENKI [POP4] | 3.13 ± 0.067 |
| CKLTLDINVELFPVAAQ [RPB8] | 2.96 ± 0.05 |
| CKQVHDKLTSIQDTLRT [MED7] | 2.81 ± 0.053 |
| CNAQPITRSVMRFNIEI [BRR2] | 3.02 ± 0.064 |
| CNSLHIPQDFENEVSDI [ESC2] | 2.92 ± 0.045 |
| CPLSQQFCGIKERNSLK [BRR2] | 3.08 ± 0.076 |
| CPNSTGAELRSVCTEAG [RPT1] | 1.55 ± 0.047 |
| CQEEVSTIEKDMKEYDS [SMC2] | 3.63 ± 0.095 |
| CQYMVACVPLLPPPEDV [RPN1] | 2.76 ± 0.053 |
| CRGELKADIGKPGRMPF [CDC53] | 2.97 ± 0.067 |
| CRKLSFSDKVNALWILV [ITC1] | 1.85 ± 0.051 |
| CRYSCLALERMVPKRST [YCS4] | 2.02 ± 0.18 |
| CYQFAEYLFKPQLISDK [ARP7] | 2.11 ± 0.04 |
| DAEVAQFLEQGLSIHPT [SRP68] | 3.1 ± 0.042 |
| DAGSNQYYVTQHDKMVD [SWI1] | 2.74 ± 0.045 |
| DAHKAEQEDIIEKTESV [SWI3] | 3.21 ± 0.081 |
| DAISQVINIAKAHPNFP [FAS1] | 2.91 ± 0.082 |
| DAIYRELTKNPNSNVEL [SMC1] | 3.38 ± 0.13 |
| DAKKCIAACTGVPDDKW [FAS1] | 2.78 ± 0.071 |
| DAKSSAYSSRFQTPFRR [RPL5] | 2.91 ± 0.05 |
| DAMIAQRSKKIQPTAKV [DIS3] | 1.69 ± 0.068 |
| DARSSRNFSLAIIDKNT [PRE4] | 2.89 ± 0.056 |
| DATTWRYSMSEQFPFYL [IRR1] | 3.07 ± 0.049 |
| DATYDSALELVGQLNKV [RPN6] | 2.72 ± 0.28 |

| Sequence | protein stability index |
| --- | --- |
| DCRMGNFYIQYDPKDGL [AAR2] | 2.61 ± 0.037 |
| DDAMEINGEDPANNHQL [SMX2] | 3.44 ± 0.071 |
| DDDIEKQEQEEKIKSKK [YCG1] | 3.14 ± 0.049 |
| DDDVTPSTKVASSAVMN [YLR335W/NUP2] | 3.26 ± 0.062 |
| DDEGSFAQENSELAVAT [SRB6] | 3.3 ± 0.054 |
| DDESPRFVMPNQLLAAL [RRP6] | 2.18 ± 0.042 |
| DDFEVNVASLVRVQFQF [GRR1] | 1.5 ± 0.089 |
| DDFQNFFDPKPFDQNLD [SWI1] | 2.12 ± 0.052 |
| DDKLAYIRVNHADKDTF [POP8] | 2.62 ± 0.049 |
| DDLKKDHIAIDWEDEEK [DSN1] | 2.82 ± 0.063 |
| DDLQSSVIPEVDREAML [YCG1] | 2.4 ± 0.078 |
| DDPVPTPPAIEHKPVSP [SSN2] | 2.49 ± 0.16 |
| DDVLQTIITDCAFLLTK [YJL039C/NUP192] | 2.34 ± 0.047 |
| DDYVLRIFAIAFTRKQA [RPS1A] | 2.156 ± 0.015 |
| DEDLHEFQIEDAIWSLV [SRB8] | 3.3 ± 0.26 |
| DEEENGSSDEDLKSLNV [SSN2] | 3.23 ± 0.093 |
| DEFPELKEPVEDIIKRT [NUT2] | 3.36 ± 0.048 |
| DEGTALSRLGLKRYCCR [RPB10] | 2.79 ± 0.12 |
| DEHHESFELKEEDISDL [RRP6] | 3.15 ± 0.059 |
| DEIATIQSKRLRNKIAG [RPS17A] | 3.48 ± 0.14 |
| DEISPELLSKYKEQIIQ [SNU114] | 2.68 ± 0.075 |
| DEITEDMFEMSDEEENN [SSN2] | 3.2 ± 0.075 |
| DELEDDTLNETNLKMKR [RRP43] | 3.36 ± 0.098 |
| DELLSQLDLCKLYFQLF [SRP68] | 1.72 ± 0.057 |
| DELVLNFENDNENNSNG [REC8] | 2.79 ± 0.16 |
| DERIEKELNTERQIFLE [CDC53] | 3.12 ± 0.086 |

| Sequence | protein stability index |
| --- | --- |
| DETYKGVEEVEGEYELT [RPL5] | 2.82 ± 0.27 |
| DEVYVQNSKFLKVNVTL [YJL039C/NUP192] | 2.45 ± 0.039 |
| DFAQKEINGDDDEDEDD [PRE10] | 3.28 ± 0.063 |
| DFIKFDAGKLVYVTGGR [RPS4A] | 2.36 ± 0.094 |
| DFIQLKQTAAYRTPGSS [SSN2] | 2.92 ± 0.044 |
| DFNMKLAINAKTITSGL [RPB2] | 2.99 ± 0.05 |
| DFNQAKHEEIDTKNLYV [RPS10A] | 3.07 ± 0.074 |
| DGENDKKEATKPAFSFG [YLR335W/NUP2] | 2.9 ± 0.033 |
| DGILRLYDALEPSDLRS [YGL100W/SEH1] | 2.99 ± 0.042 |
| DHRKRKKSKIQLLDIAE [LIN1] | 3.32 ± 0.18 |
| DHSMILPSGVLSRGDDE [SMC3] | 2.39 ± 0.04 |
| DICLKLNLDSEQTVEYM [RPN3] | 3.07 ± 0.092 |
| DIEDALVLNKSSIDRGF [RET1] | 2.97 ± 0.22 |
| DIGVLEEYARRLAEFKR [SMC4] | 3.35 ± 0.077 |
| DIICEDSTLILEQLAQH [RPB2] | 2.35 ± 0.051 |
| DIKANGSIQKGMPHKFY [RPL21A] | 3.64 ± 0.14 |
| DINPPLVFILAVVGNNM [RRP42] | 1.52 ± 0.046 |
| DINTIKLQLSFVLQMVG [SRP72] | 1.57 ± 0.062 |
| DITFFGEALPNKFHKSI [SIR2] | 2.64 ± 0.054 |
| DIYKSHLDNSKSVFSSA [RPN1] | 2.66 ± 0.063 |
| DKDRDTRRKRRQGRSNR [SNF5] | 3.55 ± 0.14 |
| DKEWVFAALSDSYGQGS [SSN2] | 3.34 ± 0.09 |
| DKFFTLSAENIEERLVA [SCL1] | 3.02 ± 0.069 |
| DKFKLNENDLKTYNCLH [SMC1] | 2.85 ± 0.094 |
| DKIAVAVAGLTADAEIL [PRE9] | 2.1 ± 0.075 |

Source: the supplement of paper PMC9732359
